Experimental data as given in the supplement of paper PMC12042874.
± gives the uncertainty stated by the source.

Assay: amyloid nucleation score (Sup35N fusion, yeast selection) (log enrichment); library NNK3; higher = more nucleation; inactive = no reads after selection
Procedure, shortened: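 In psi-negative yeast, Sup35N fusions carrying peptides of 20 random codons were induced with 100 μM copper sulfate for 24 hours. The cells then grew 7 days at 30°C on medium lacking adenine and uracil, and plasmid inserts from input and output were Illumina-sequenced, excluding sequences with under 100 input reads. Nucleation score is the DiMSum log enrichment of output over input reads, centred on the mode score of non-aggregating sequences.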

Substance | amyloid nucleation score
LYDLTGPVSNLTISLLNVEY | inactive
LYDSSYMVDIDSYTLENCRS | inactive
LYFRLPNASAVDIIEIGFPV | 0.039 ± 0.55
LYGGLEHESIMFIRCSGWIC | inactive
LYGGTAFLLSFCVAE | inactive
LYLYSWFC | inactive
LYMNFSMDGIASVSLGVLRL | 0.633 ± 0.19
LYMYLGRVCMWHLRCHKRYN | inactive
LYNGGI | inactive
LYPVTKR | inactive
LYRPCLWSDWRT | inactive
LYSETWEY | inactive
LYSGFRGMPKYTDKNCMGRV | inactive
LYSIWGRNRGHGMIGWDPLT | inactive
LYSLT | inactive
LYSLVFWNDSSCRSRLVTWF | inactive
LYSVFVRRSCLNG | inactive
LYTDDAPGDVFLFNAFRVFH | inactive
LYVATS | inactive
LYVHFSILCTFGWSVPNQEG | inactive
LYYNYRGGYVYKNRDEVTLF | inactive
MALSRILTALVVLLLTVVVC | inactive
MAYLNLVQV | inactive

Substance | amyloid nucleation score
MCFGKYLSL | inactive
MCGDKSV | inactive
MCIHSITECRS | inactive
MCILQGLFDVNSLTGLWVAS | inactive
MCPPVSGNG | inactive
MCSRCLFHCGLVVCRVVVPA | inactive
MDAISFQRDMMFNGGFFCAM | inactive
MDEGIVKTELFYRWRISRLG | inactive
MDIRERRRFFSNIRRVRYLK | inactive
MDRIFWD | inactive
MDSLGW | inactive
MDVKKRQSSGVALRFELLDG | inactive
MDVWASYMTVSESVCSSLVR | inactive
MEINAVPD | inactive
MFCDLINESSHCCEATLECN | inactive
MFIFGGISFVMVSYLNRAHT | 1.13 ± 0.1
MFLRVSTTINAYFLRVRSLI | inactive
MFLWRDCNGTN | inactive
MFMVHQVDTERW | inactive
MGGLIFVSLKAWSIILHYNK | inactive
MGHSDNGEDTSTWLCDRRVV | inactive
MGPRQKCALIATRKCQSVYL | -0.334 ± 1.1
MGRAWTIQAGNVMCRVVGKH | -0.283 ± 0.58

Substance | amyloid nucleation score
MGRGWRHGCWLGRILRFWYD | inactive
MGSSFGGVLVSISVSWGCGF | -0.012 ± 0.51
MHFRTSDIPTTLELGLLGWP | 0.096 ± 0.47
MHFVELLRLALVL | inactive
MHGTI | inactive
MHLDYGC | inactive
MHNRLVNDPACPVSTSSL | inactive
MHYICAGSGSWAI | inactive
MIFKKDSLGMILHFHHYFYN | inactive
MIGLDDWVLALRVRRCSLLV | inactive
MILLGKNSLDPEGKGVCHVW | inactive
MINVPSVSYTMSSVIYTSFK | 2.39 ± 0.055
MIQGSVYPFHLCHLYDISHE | inactive
MIRMIMLSRSDRPGVSRKLD | inactive
MISNHCYSLTMIAE | -0.432 ± 1
MISRSSNKGV | inactive
MIVWTHNYLEGELFVSLPLV | inactive
MIYGNWHIWFDVTAVKYEVG | inactive
MIYLYNKKYMSCRFDTCIIP | inactive
MKKWDNNSLVLPLKGSGKED | inactive
MLAGWSQFYGISRYLPENPV | inactive
MLCAL | inactive
MLCHLVMTSSLSRFLDRGFR | 1.26 ± 0.1

Substance | amyloid nucleation score
MLDCF | inactive
MLDFICAVFSVKNWVGICFV | inactive
MLFPPLLGNWLDSGTTQVRR | inactive
MLFYCFYINGRAARTYKRYS | inactive
MLGDLAYCGYMSSAGVGSLI | inactive
MLGVSYCRQVVYKENSYDFR | inactive
MLGWCYLMTTCE | inactive
MLHLGTCEIILAYHHDMKML | inactive
MLIGWC | inactive
MLKPIMLILKSLEFVLEESS | 0.985 ± 0.11
MLNGVLNSKVPMNRRTSGNL | 0.537 ± 0.13
MLNVINVYHVSSCGLRGNFE | 2.63 ± 0.077
MLREMY | inactive
MLYVLSYWLLKMPQMLNVNP | inactive
MMGKRDALVFN | inactive
MMIIL | inactive
MMNGVGAWASFGLLNNYGGN | 0.291 ± 0.29
MMSDLILV | -0.43 ± 1
MMSDNDISLRRYFVQCLKSS | inactive
MMSFNVPLNAWVLSEFDTTY | inactive
MMSTTKSRDNSIKDQLSGSS | inactive
MNFMLTLFLWGM | inactive
MNGIGNYLDTYMGSCHVEDM | inactive

Substance | amyloid nucleation score
MNRTFVIIVKNVASMIKDNR | 2.1 ± 0.1
MNVGAIGKSSFMY | inactive
MNWGYILLYVWDVSKNRYGF | inactive
MNWLSTTGECSILDISQ | inactive
MPILLCLVHPPLYSSDPFQK | inactive
MPMCT | inactive
MPSEILVSGIAGYAWAVSR | -0.504 ± 1.9
MQFLRYSLPSDNRLPGCFL | inactive
MQMMGNEILRFFFVSVLNIN | inactive
MRARLFNRITYIGNECNVLS | inactive
MRCGKSL | inactive
MRDMIINMVSGETNGLCVKP | inactive
MRICFFDSIQHYQKNQD | 2.1 ± 0.071
MRLCAGSCAVFMWNVLVMLG | inactive
MRLDRS | inactive
MRMVTPLSGRPRWYLHF | inactive
MRNCEIISWKKAQVLSYNSS | inactive
MRNGCCNACKILLDIRLFL | 1.96 ± 0.059
MRPITGVMVLNVSNRQITLF | 1.72 ± 0.088
MRSNSTVYGTFTRSNVLHIP | inactive
MRSTNLACAGMHIN | inactive
MSCSASSSGKAWFGGSPTWW | 0.674 ± 0.3
MSENLDKLKTFPPALE | inactive

Substance | amyloid nucleation score
MSESTITLPWIAGIAWDEKL | inactive
MSFVSSRGVNKWQVETGLLE | inactive
MSGALFMGLGTGRSRVTRNL | inactive
MSKHF | inactive
MSKWYYRWASYNCWFFDRPV | inactive
MSMVFIVSCNDDIYTRAR | 0.119 ± 0.24
MSSFLTPAGRFSRYFTFVCF | inactive
MSSSIILWNFCNMDRCSLVG | 2.23 ± 0.087
MSVQGDHYFPT | inactive
MSWGGCNAVRKFFECRRRVQ | 0.222 ± 0.5
MTCTTCACDDICSNKLVLFH | inactive
MTFRFNVMLVCLWRATNCFL | inactive
MVLCSKGIVNSARLAFKKSR | inactive
MVNAWLNRYKMWNVFIALNR | inactive
MVNMTI | inactive
MVQNLQNRYGSWSCKFGFQR | inactive
MVSLHYVI | inactive
MVTLKQYLYSG | 1.05 ± 0.2
MVVLRAVEQLGVRNNDYHS | inactive
MVVRDDKIWIAFRCLYDCCV | inactive
MVVTKLRRDVISQSRISMGW | 1.07 ± 0.1
MWLRFKDFVVRWN | inactive
MWSHLVCCNRQPENLYG | 1.32 ± 0.16

Substance | amyloid nucleation score
MWVGKHDVYTRDFM | inactive
MWVMGNDS | inactive
MWVNATSSV | inactive
MWVSAYWYNTCRYRFLSV | inactive
MWWAINCWSSKFHIYSIDTY | inactive
MYFEECGRCFNRSFNYGVNQ | inactive
MYLGGKALIRPFPVYATAAW | inactive
MYLVG | inactive
MYSNVDQFNI | -0.257 ± 0.47
MYVLLHTSQVL | inactive
MYVPIPVYFQF | inactive
MYVSV | inactive
MYVWLRCKLIGNSFLRVKCS | inactive
MYYRTRQELTSCPRNQNIL | -0.069 ± 0.85
NAALIVCLITFYVLGIFLAG | inactive
NAHSHGYGSVPGR | inactive
NAQGVSKWEDTRSNLNRLVV | inactive
NCFMSLASSNTR | inactive
NCKLFFSFGM | 1.49 ± 0.094
NCLRLYQGSGKMFIIV | inactive
NCLSPTCRSVL | 2.07 ± 0.097
NCMFPGYLYNVDITLMDV | inactive
NCNVPRSHGGGFLTYTLMRE | inactive
